Test results published in article PMC5346138, “High-affinity RNA binding by a hyperthermophilic single-stranded DNA-binding protein”.

What was measured:
[1] = biological target: T1, SsoSSB (single-stranded DNA-binding protein) (Sulfolobus solfataricus, UniProt Q97W73 1-148); test: FRET hairpin melting; hairpin disrupted at 20 nM SsoSSB; ITC: 20 mM MES pH 6.5, 100 mM K-glutamate, 1 mM MgCl2, 50 C; PIFE: 50 mM Tris-HCl pH 8.0, 10 mM KCl; smFRET: same buffer plus Trolox and oxygen scavenger, room; conditions: protein: recombinant; label: 5' Cy5, 3' Cy3; hairpin with single-nucleotide bulge
T1 sequence: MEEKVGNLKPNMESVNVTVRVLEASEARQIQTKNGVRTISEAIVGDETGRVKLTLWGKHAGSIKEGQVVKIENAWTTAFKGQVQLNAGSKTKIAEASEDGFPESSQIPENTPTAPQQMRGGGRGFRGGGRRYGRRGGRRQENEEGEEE

SsoSSB OB domain (15N) [2] = biological target: T2, SsoSSB OB domain (15N) (Sulfolobus solfataricus, UniProt Q97W73 1-114); test: NMR HSQC; 1:1, 298 K; 2MNA is an earlier structure; ITC: 20 mM MES pH 6.5, 100 mM K-glutamate, 1 mM MgCl2, 50 C; PIFE: 50 mM Tris-HCl pH 8.0, 10 mM KCl; smFRET: same buffer plus Trolox and oxygen scavenger, room; conditions: protein: recombinant; single-stranded
T2 sequence: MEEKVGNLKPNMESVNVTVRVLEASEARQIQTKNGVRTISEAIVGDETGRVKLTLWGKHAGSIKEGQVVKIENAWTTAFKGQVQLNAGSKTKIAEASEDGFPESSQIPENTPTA

SsoSSB OB domain (15N) [3] = biological target: T2, SsoSSB OB domain (15N); test: NMR HSQC; 1:1, 298 K; the RNA complex is only a HADDOCK model; ITC: 20 mM MES pH 6.5, 100 mM K-glutamate, 1 mM MgCl2, 50 C; PIFE: 50 mM Tris-HCl pH 8.0, 10 mM KCl; smFRET: same buffer plus Trolox and oxygen scavenger, room; conditions: protein: recombinant; single-stranded
[4] = biological target: T1, SsoSSB (single-stranded DNA-binding …); test: ITC; apparent Kd, 50 C; text says 21T, Fig. 1 legend says poly-A DNA; ITC: 20 mM MES pH 6.5, 100 mM K-glutamate, 1 mM MgCl2, 50 C; PIFE: 50 mM Tris-HCl pH 8.0, 10 mM KCl; smFRET: same buffer plus Trolox and oxygen scavenger, room; conditions: protein: recombinant
[5] = biological target: T3, SsoSSB A114C-Alexa Fluor 647 (Sulfolobus solfataricus, UniProt Q97W73 1-148, A114C); test: single-molecule FRET; 1-2 nM protein; dissociation 6 +/- 1 s-1, association 0.12 +/- 0.08 s-1; ITC: 20 mM MES pH 6.5, 100 mM K-glutamate, 1 mM MgCl2, 50 C; PIFE: 50 mM Tris-HCl pH 8.0, 10 mM KCl; smFRET: same buffer plus Trolox and oxygen scavenger, room; conditions: protein: recombinant; tags: Alexa Fluor 647 label; label: 5' biotin, 3' Cy3; single-stranded
T3 sequence: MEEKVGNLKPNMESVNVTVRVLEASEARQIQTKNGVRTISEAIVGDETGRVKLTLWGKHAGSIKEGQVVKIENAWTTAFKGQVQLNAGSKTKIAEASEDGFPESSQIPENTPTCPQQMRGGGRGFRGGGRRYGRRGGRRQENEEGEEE

[6] = biological target: T1, SsoSSB (single-stranded DNA-binding …); test: fluorescence (PIFE); 10 nM RNA, 10 mM KCl; Hill 1.8 +/- 0.3; ITC: 20 mM MES pH 6.5, 100 mM K-glutamate, 1 mM MgCl2, 50 C; PIFE: 50 mM Tris-HCl pH 8.0, 10 mM KCl; smFRET: same buffer plus Trolox and oxygen scavenger, room; conditions: protein: recombinant, label: 5' biotin, 3' Cy3
[7] = biological target: T1, SsoSSB (single-stranded DNA-binding …); test: fluorescence (PIFE); ~0.7 nM RNA; Hill 1.7 +/- 0.2; ITC: 20 mM MES pH 6.5, 100 mM K-glutamate, 1 mM MgCl2, 50 C; PIFE: 50 mM Tris-HCl pH 8.0, 10 mM KCl; smFRET: same buffer plus Trolox and oxygen scavenger, room; conditions: protein: recombinant, label: 5' biotin, 3' Cy3
[8] = biological target: T1, SsoSSB (single-stranded DNA-binding …); test: ITC; apparent Kd, 50 C; text says 21U, Fig. 1 legend says poly-rA; ITC: 20 mM MES pH 6.5, 100 mM K-glutamate, 1 mM MgCl2, 50 C; PIFE: 50 mM Tris-HCl pH 8.0, 10 mM KCl; smFRET: same buffer plus Trolox and oxygen scavenger, room; conditions: protein: recombinant
[9] = biological target: T1, SsoSSB (single-stranded DNA-binding …); test: fluorescence (PIFE); 10 nM DNA, 10 mM KCl; Hill 1.6 +/- 0.5; ITC: 20 mM MES pH 6.5, 100 mM K-glutamate, 1 mM MgCl2, 50 C; PIFE: 50 mM Tris-HCl pH 8.0, 10 mM KCl; smFRET: same buffer plus Trolox and oxygen scavenger, room; conditions: protein: recombinant, label: 5' biotin, 3' Cy3
[10] = biological target: T3, SsoSSB A114C-Alexa Fluor 647; test: single-molecule FRET; 1-2 nM protein; dissociation 3.8 +/- 0.8 s-1, association 0.06 +/- 0.01 s-1; ITC: 20 mM MES pH 6.5, 100 mM K-glutamate, 1 mM MgCl2, 50 C; PIFE: 50 mM Tris-HCl pH 8.0, 10 mM KCl; smFRET: same buffer plus Trolox and oxygen scavenger, room; conditions: protein: recombinant; tags: Alexa Fluor 647 label; chain copies: 2; label: 5' biotin, 3' Cy3; single-stranded

## UGAUAAUCUCUUAUAGAAUUGAAAGU (structured_RNA) [RNA Hairpin]
[1]
  binding result: binds

## TTTTTT (ssDNA) [6T ssDNA]
SsoSSB OB domain (15N) [2]
  binding result: binds

## UUUUUU (ssRNA) [6U RNA]
SsoSSB OB domain (15N) [3]
  binding result: binds

## TTTTTTTTTTTTTTTTTTTTT (ssDNA) [21T DNA]
[4]
  Kd: 95 ± 0.6 nM

## CCCCCCCCCCCC (ssRNA) [C12ssRNA]
[5]
  binding result: binds
[6]
  Kd: 4.2 ± 0.6 nM
[7]
  Kd: 6 ± 1 nM

## UUUUUUUUUUUUUUUUUUUUU (ssRNA) [R21U (21U RNA)]
[8]
  Kd: 93 ± 0.4 nM

## CCCCCCCCCCCC (ssDNA) [C12ssDNA]
[9]
  Kd: 8.2 ± 0.9 nM
[10]
  binding result: binds
